Measured values: patent publication US20250049896A1 (Regeneron, published 2025)
Blank lines part the entries; values can stand above or below the binder they belong to.

Tests used:
[1] = molecular target: T1, hmm.hTfRC (REGN2431), human transferrin receptor extracellular domain with hexahistidine-myc-myc tag (human, UniProt P02786 89-760); assay: SPR (Biacore), mAb captured on anti-human Fc, 100 nM hTFR-mmh, 25 C
T1 construct: Monomeric recombinant protein, 79210 g/mol; also called hTFR-mmh; His-myc-myc-hTFRC ecto

[2] = molecular target: T2, mf TFRC ecto-mmh (REGN2054), monomeric monkey (cyno) Tfrc ectodomain with C-terminal myc-myc-hexahistidine tag (monkey (cyno), Macaca fascicularis, UniProt H9EXL1 89-760); assay: SPR (Biacore), mAb captured on anti-human Fc, 100 nM mfTfR-mmh, 25 C
T2 construct: range 89-760; also called mfTfR-mmh; mfTFR-mmh

[3] = molecular target: T1, hmm.hTfRC (REGN2431), human transferrin …; assay: SPR (Biacore), mAb from CHO supernatant captured on anti-human Fc, 100 nM hTFR-mmh injected, 25 C
[4] = molecular target: T2, mf TFRC ecto-mmh (REGN2054), monomeric …; assay: SPR (Biacore), mAb from CHO supernatant captured on anti-human Fc, 100 nM mfTfR-mmh injected, 25 C
Protocol: (§1) Biacore binding kinetics assays were conducted for the interaction of 32 anti-human TfR IgG1 monoclonal antibodies from CHO supernatants with TfR reagents at 25° C.
(§2) Equilibrium dissociation constants (KD) for the interaction of anti-TfR monoclonal antibodies with human and fascicularis monkey TfR ecto domain recombinant proteins were determined using a real-time surface plasmon resonance (SPR) based Biacore S200 biosensor. All binding studies were performed in 10 mM HEPES, 150 mM NaCl, 3 mM EDTA, and 0.05% v/v surfactant Tween-20, pH 7.4 (HBS-EP) running buffer at […]. The Biacore CM5 sensor surface was first derivatized by amine coupling with a monoclonal mouse anti-human Fc antibody (REGN2567) followed by a step to capture anti-TfR monoclonal antibodies in CHO conditioned media. […] The dissociation of TfR bound to anti-TfR monoclonal antibodies was monitored for 3 minutes in HBS-EP running buffer. At the end of each cycle, the anti-TfR monoclonal antibodies capture surface was regenerated using a 12-sec injection of 20 mM H₃PO₄. The association rate (ka) and dissociation rate (kd) were determined by fitting the real-time binding sensorgrams to a 1:1 binding model with mass transport limitation using Scrubber 2.0 c software. The dissociation equilibrium constant (KD) and dissociative half-life (t½) were calculated from the kinetic rate constants as: […]

[5] = molecular target: T3, REGN2431 (hmm.hTfRC); monomeric human Tfrc ectodomain, amino acids C89-F760, with N-terminal … (human, UniProt P02786 89-760); assay: SPR (Biacore), mAb from CHO supernatant captured on anti-human Fc, 100 nM hTfR-mmh injected, 25 C
T3 construct: also called hTfR-mmh; hTFR-mmh
Protocol: as §1, §2

[6] = molecular target: T4, REGN2054 (mf TFRC ecto-mmh); monomeric monkey (cyno) Tfrc ectodomain, amino acids C89-F760, with C-terminal … (cynomolgus monkey (Macaca fascicularis), UniProt H9EXL1 89-760 (rhesus entry)); assay: SPR (Biacore), mAb from CHO supernatant captured on anti-human Fc, 100 nM mfTFR-mmh injected, 25 C
T4 construct: range 89-760; also called mfTFR-mmh; mfTfR-mmh
Protocol: as §1, §2

T2 sequence (chain, as listed by the source): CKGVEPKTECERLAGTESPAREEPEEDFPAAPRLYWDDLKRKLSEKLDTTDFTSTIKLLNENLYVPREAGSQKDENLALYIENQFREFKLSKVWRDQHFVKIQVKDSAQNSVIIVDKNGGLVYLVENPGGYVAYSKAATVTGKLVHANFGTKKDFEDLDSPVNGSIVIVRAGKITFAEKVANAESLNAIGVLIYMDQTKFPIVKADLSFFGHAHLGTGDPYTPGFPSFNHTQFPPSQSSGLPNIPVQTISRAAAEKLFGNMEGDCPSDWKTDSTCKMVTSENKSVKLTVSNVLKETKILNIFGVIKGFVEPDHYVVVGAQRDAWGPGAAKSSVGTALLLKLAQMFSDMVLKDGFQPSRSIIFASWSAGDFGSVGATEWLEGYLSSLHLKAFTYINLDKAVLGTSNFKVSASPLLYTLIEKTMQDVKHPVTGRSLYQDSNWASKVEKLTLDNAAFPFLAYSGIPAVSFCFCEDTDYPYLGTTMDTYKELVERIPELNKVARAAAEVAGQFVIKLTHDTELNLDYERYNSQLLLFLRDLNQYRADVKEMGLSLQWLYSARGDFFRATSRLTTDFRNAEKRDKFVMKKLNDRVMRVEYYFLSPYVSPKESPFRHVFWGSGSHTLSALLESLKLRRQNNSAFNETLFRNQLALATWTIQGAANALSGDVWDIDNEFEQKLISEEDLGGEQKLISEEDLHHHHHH
T1 sequence (P02786 other isoform, or with tags, fused parts or gaps): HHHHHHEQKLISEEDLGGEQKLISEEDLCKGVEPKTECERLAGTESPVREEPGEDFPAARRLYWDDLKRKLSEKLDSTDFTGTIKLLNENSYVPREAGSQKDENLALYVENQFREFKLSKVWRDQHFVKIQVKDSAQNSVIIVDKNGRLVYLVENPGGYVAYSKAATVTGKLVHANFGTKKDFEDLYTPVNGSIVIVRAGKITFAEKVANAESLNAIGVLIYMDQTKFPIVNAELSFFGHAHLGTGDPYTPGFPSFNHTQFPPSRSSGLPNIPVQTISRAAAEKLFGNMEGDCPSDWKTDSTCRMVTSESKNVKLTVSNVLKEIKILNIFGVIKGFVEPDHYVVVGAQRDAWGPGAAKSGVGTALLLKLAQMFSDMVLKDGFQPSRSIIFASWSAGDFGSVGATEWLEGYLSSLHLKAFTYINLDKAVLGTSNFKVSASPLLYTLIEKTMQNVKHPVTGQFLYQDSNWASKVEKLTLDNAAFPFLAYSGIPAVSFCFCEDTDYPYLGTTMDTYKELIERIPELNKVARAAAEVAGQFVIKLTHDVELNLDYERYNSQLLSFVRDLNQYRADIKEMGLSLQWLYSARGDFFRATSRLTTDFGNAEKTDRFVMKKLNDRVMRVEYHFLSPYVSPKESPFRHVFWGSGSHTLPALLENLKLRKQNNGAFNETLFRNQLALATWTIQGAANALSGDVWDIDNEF
T4 sequence (chain, as listed by the source): as the sequence (chain, as listed by the source) above
T3 sequence (P02786 other isoform, or with tags, fused parts or gaps): as the sequence (P02786 other isoform, or with tags, fused parts or gaps) above

100 nM Ag Bound (RU) [1]: 9 RU
100 nM Ag Bound (RU) [2]: 1 RU
binding result [3]: no binding (tested: 100 nM)
binding result [4]: no binding (tested: 100 nM)
B1: 69332 (antibody, human IgG1, kappa, V domains shown)
VH: QVTLRESGPALVKPSQTLTLTCTFSGFSLNTYGMFVSWIRQPPGKALEWLAHIHWDDDKYYSTSLKTRLTISKDTSKNQVVLTMTNMDPVDTATYYCARGHNNLNYIIHWGQGTLVTVSS
VL: AIQMTQSPSSLSASVGDRVTITCRASQGIRNDLGWYQQKPGKAPKLLIYAASTLQSGVPSRFSGSGSGTDFTLTISSLQPEDFATYYCLQDYNYPFTFGPGTKVDIKR
notes: Tested as bivalent human IgG1 from CHO primary supernatant

Kd [5]: 0.041 µM
Kd [6]: 0.0205 µM
B2: 69331 anti-human TfR IgG1 monoclonal antibody (antibody, V domains shown)
VH: QVQLVESGGGVVQPGRSLRLSCIASGFTFSVYGIHWVRQAPGKGLEWMAVISHDGNIKHYADSVKGRFTISRDNSKNTLYLQINSLRTEDTAVYYCAKDTWNSLDTFDIWGQGTMVTVSS
VL: DIQLTQSPSSLSASVGDRVTITCWASQGISSYLAWYQQKPGKAPKLLIYAASTLQSGVPSRFSGSGSGTEFTLTISSLQPEDFATYYCQQLNSYPLTFGGGTKVEIKR
notes: Tested as bivalent IgG1 from CHO primary supernatant

100 nM Ag Bound (RU) [1]: 6 RU
100 nM Ag Bound (RU) [2]: -7 RU
binding result [3]: no binding (tested: 100 nM)
B3: 69305 (antibody, human IgG1, kappa, V domains shown)
VH: QVQLVESGGGVVQPGRSLRLSCAASGFTFSSYGMHWVRQAPGKGLEWVAVIWYDGSNKYYADSVKGRFTISRDISKNTLYLQMNSLRAEDTAVYYCAGQLDLFFDYWGQGTLVTVSS
VL: DIQMTQSPSSLSASVGDRVTITCRASQSIDRYLNWYRQKPGKAPKLLIYTTSSLQSGVPSRFSGSGSGTDFTLTLSSLQPEDFATYYCQQSYSPPLTFGGGTKVEIKR
notes: as for B1
